T1: MGME1 (Homo sapiens, UniProt Q9BQP7 21-344)
T1 sequence: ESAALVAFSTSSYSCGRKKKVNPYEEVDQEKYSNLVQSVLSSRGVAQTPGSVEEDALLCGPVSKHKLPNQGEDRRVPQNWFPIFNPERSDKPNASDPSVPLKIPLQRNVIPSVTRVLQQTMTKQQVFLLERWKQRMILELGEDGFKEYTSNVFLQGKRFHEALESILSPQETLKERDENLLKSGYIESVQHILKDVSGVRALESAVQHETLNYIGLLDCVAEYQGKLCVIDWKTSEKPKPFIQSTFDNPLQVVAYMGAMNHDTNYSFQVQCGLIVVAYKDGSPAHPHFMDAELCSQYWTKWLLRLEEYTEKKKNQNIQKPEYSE

B1: T10(3')-5'dSp (ssDNA)
DNA: TTTTTTTTTT
modifications: 5'-phosphate-tetrahydrofuran (abasic) before T10
B2: T20(3')-5'p (ssDNA)
DNA: TTTTTTTTTTTTTTTTTTTT
modifications: 5'-phosphate
B3: T20(3') (ssDNA)
DNA: TTTTTTTTTTTTTTTTTTTT
B4: T10(3') (ssDNA)
DNA: TTTTTTTTTT
B5: T10(3')-5'p (ssDNA)
DNA: TTTTTTTTTT
modifications: 5'-phosphate
B6: A20(5') (ssDNA)
DNA: AAAAAAAAAAAAAAAAAAAA
modifications: 5' phosphate linkage of the FAM label
B7: T10(5') (ssDNA)
DNA: TTTTTTTTTT
modifications: 5' phosphate linkage of the FAM label
B8: T20(5') (ssDNA)
DNA: TTTTTTTTTTTTTTTTTTTT
modifications: 5' phosphate linkage of the FAM label
B9: T20 (unlabeled) (ssDNA)
DNA: TTTTTTTTTTTTTTTTTTTT

One series concerns the target T1, MGME1. Description: fluorescence polarization; 10 mM EDTA; FP: 2 nM FAM-ssDNA, 20 mM Hepes pH 8.0 (at 37 C), 100 mM NaCl, 0.1 mg/ml BSA, 1 mM DTT, 10 mM EDTA, mixed at room temperature, 15 min; EMSA: 1 uM ssDNA, 20 mM Hepes pH 8.0, 100 mM NaCl, 1 mM DTT, 10 mM EDTA, room temperature 15 min, gel 0.35x TBE at 4 C. As to conditions: protein: recombinant; tags: His-SUMO tag removed by Ulp1; label: 3'-6FAM; single strand.
On to B1, for which the Kd came to 340 ± 24 nM.
The same measure, in the same setting: the figure for B2 is 180 ± 5 nM.
On the same count and under the same terms, as for B3, the figure is 330 ± 83 nM.
For B4, the Kd was found to be 7500 ± 890 nM.
Consider B5, for which the Kd came out at 1600 ± 75 nM.

Staying with this series, now noted: protein: recombinant; tags: His-SUMO tag removed by Ulp1; label: 5'-6FAM; single strand.
In the case of B6, the dissociation constant Kd was 1300 ± 170 nM.
On the same count and under the same terms, the figure for B7 is 600 ± 150 nM; for B8 it is 240 ± 36 nM.

For another series, the target named is T1, MGME1. As to the kind of experiment: competition (fluorescence polarization); 10 mM EDTA; 140 nM MGME1 with 2 nM T20(5') preformed; FP: 2 nM FAM-ssDNA, 20 mM Hepes pH 8.0 (at 37 C), 100 mM NaCl, 0.1 mg/ml BSA, 1 mM DTT, 10 mM EDTA, mixed at room temperature, 15 min; EMSA: 1 uM ssDNA, 20 mM Hepes pH 8.0, 100 mM NaCl, 1 mM DTT, 10 mM EDTA, room temperature 15 min, gel 0.35x TBE at 4 C. The settings on record: protein: recombinant; tags: His-SUMO tag removed by Ulp1; single strand.
Consider B9, for which the equilibrium dissociation constant (Kd) was 250 ± 33 nM.

The values are drawn from article PMC9460513, “The 5′-phosphate enhances the DNA-binding and exonuclease activities of human mitochondrial genome maintenance exonuclease 1 (MGME1)”.
